B1: GpH7-A5/GpH7-B3 variant S337_09D/GpL16-k0 (He Ab) (antibody, human IgG1, kappa)
heavy 1: not shown
heavy 2: not shown
light: DIVMTQSPLSLPVTPGEPASISCQASESLVHSNRNTYLHWYLQKPGQSPQLLIYKVSNRFSGVPDRFSGSGSGTDFTLKISRVEAEDVGVYYCSQNTHVPPTFGQGTKVEIERTVAAPSVFIFPPSDEQLKSGTASVVCLLNNFYPREAKVQWKVDNALQSGNSQESVTEQDSKDSTYSLSSTLTLSKADYEKHKVYACEVTHQGLSSPVTKSFNRGEC
notes: Substitution in one H chain only; position in EU numbering; also called S337D heterodimerized antibody
B2: GpH7-A5/GpH7-B3 variant T335_04F/GpL16-k0 (He Ab) (antibody, human IgG1, kappa)
heavy 1: not shown
heavy 2: not shown
light: B1 light
notes: Substitution in one H chain only; position in EU numbering; also called T335F heterodimerized antibody
B3: GpH7-A5/GpH7-B3 variant L328_06M/GpL16-k0 (He Ab) (antibody, human IgG1, kappa)
heavy 1: not shown
heavy 2: not shown
light: B1 light
notes: Substitution in one H chain only; position in EU numbering; also called L328M heterodimerized antibody
B4: GpH7-A5/GpH7-B3 variant K334_16H/GpL16-k0 (He Ab) (antibody, human IgG1, kappa)
heavy 1: not shown
heavy 2: not shown
light: B1 light
notes: Substitution in one H chain only; position in EU numbering; also called K334H heterodimerized antibody
B5: GpH7-A5/GpH7-B3 variant P271_08L/GpL16-k0 (He Ab) (antibody, human IgG1, kappa)
heavy 1: not shown
heavy 2: not shown
light: B1 light
notes: Substitution in one H chain only; position in EU numbering; also called P271L heterodimerized antibody
B6: GpH7-A5/GpH7-B3 variant P331_04F/GpL16-k0 (He Ab) (antibody, human IgG1, kappa)
heavy 1: not shown
heavy 2: not shown
light: B1 light
notes: Substitution in one H chain only; position in EU numbering; also called P331F heterodimerized antibody
B7: GpH7-A5/GpH7-B3 variant S267_10E/GpL16-k0 (He Ab) (antibody, human IgG1, kappa)
heavy 1: not shown
heavy 2: not shown
light: B1 light
notes: Substitution in one H chain only; position in EU numbering; also called S267E heterodimerized antibody
B8: GpH7-A5/GpH7-B3 variant S239_08L/GpL16-k0 (He Ab) (antibody, human IgG1, kappa)
heavy 1: not shown
heavy 2: not shown
light: B1 light
notes: Substitution in one H chain only; position in EU numbering; also called S239L heterodimerized antibody
B9: GpH7-A5/GpH7-B3 variant S239_01G/GpL16-k0 (He Ab) (antibody, human IgG1, kappa)
heavy 1: not shown
heavy 2: not shown
light: B1 light
notes: Substitution in one H chain only; position in EU numbering; also called S239G heterodimerized antibody
B10: GpH7-A5/GpH7-B3 variant L328_14T/GpL16-k0 (He Ab) (antibody, human IgG1, kappa)
heavy 1: not shown
heavy 2: not shown
light: B1 light
notes: Substitution in one H chain only; position in EU numbering; also called L328T heterodimerized antibody
B11: GpH7-A5/GpH7-B3 variant L328_15Y/GpL16-k0 (He Ab) (antibody, human IgG1, kappa)
heavy 1: not shown
heavy 2: not shown
light: B1 light
notes: Substitution in one H chain only; position in EU numbering; also called L328Y heterodimerized antibody
B12: GpH7-A5/GpH7-B3 variant S239_09D/GpL16-k0 (He Ab) (antibody, human IgG1, kappa)
heavy 1: not shown
heavy 2: not shown
light: B1 light
notes: Substitution in one H chain only; position in EU numbering; also called S239D heterodimerized antibody
B13: GpH7-A5/GpH7-B3 variant L328_19Q/GpL16-k0 (He Ab) (antibody, human IgG1, kappa)
heavy 1: not shown
heavy 2: not shown
light: B1 light
notes: Substitution in one H chain only; position in EU numbering; also called L328Q heterodimerized antibody
B14: GpH7-A5/GpH7-B3 variant L328_04F/GpL16-k0 (He Ab) (antibody, human IgG1, kappa)
heavy 1: not shown
heavy 2: not shown
light: B1 light
notes: Substitution in one H chain only; position in EU numbering; also called L328F heterodimerized antibody
B15: GpH7-A5/GpH7-B3 variant K334_18N/GpL16-k0 (He Ab) (antibody, human IgG1, kappa)
heavy 1: not shown
heavy 2: not shown
light: B1 light
notes: Substitution in one H chain only; position in EU numbering; also called K334N heterodimerized antibody
B16: GpH7-A5/GpH7-B3 variant S267_03V/GpL16-k0 (He Ab) (antibody, human IgG1, kappa)
heavy 1: not shown
heavy 2: not shown
light: B1 light
notes: Substitution in one H chain only; position in EU numbering; also called S267V heterodimerized antibody
B17: GpH7-A5/GpH7-B3 variant S267_14T/GpL16-k0 (He Ab) (antibody, human IgG1, kappa)
heavy 1: not shown
heavy 2: not shown
light: B1 light
notes: Substitution in one H chain only; position in EU numbering; also called S267T heterodimerized antibody
B18: GpH7-A5/GpH7-B3 variant T335_08L/GpL16-k0 (He Ab) (antibody, human IgG1, kappa)
heavy 1: not shown
heavy 2: not shown
light: B1 light
notes: Substitution in one H chain only; position in EU numbering; also called T335L heterodimerized antibody
B19: GpH7-A5/GpH7-B3 variant S337_14T/GpL16-k0 (He Ab) (antibody, human IgG1, kappa)
heavy 1: not shown
heavy 2: not shown
light: B1 light
notes: Substitution in one H chain only; position in EU numbering; also called S337T heterodimerized antibody
B20: GpH7-A5/GpH7-B3 variant S267_08L/GpL16-k0 (He Ab) (antibody, human IgG1, kappa)
heavy 1: not shown
heavy 2: not shown
light: B1 light
notes: Substitution in one H chain only; position in EU numbering; also called S267L heterodimerized antibody
B21: GpH7-A5/GpH7-B3 variant T335_09D/GpL16-k0 (He Ab) (antibody, human IgG1, kappa)
heavy 1: not shown
heavy 2: not shown
light: B1 light
notes: Substitution in one H chain only; position in EU numbering; also called T335D heterodimerized antibody
B22: GpH7-A5/GpH7-B3 variant K334_15Y/GpL16-k0 (He Ab) (antibody, human IgG1, kappa)
heavy 1: not shown
heavy 2: not shown
light: B1 light
notes: Substitution in one H chain only; position in EU numbering; also called K334Y heterodimerized antibody
B23: GpH7-A5/GpH7-B3 variant S239_18N/GpL16-k0 (He Ab) (antibody, human IgG1, kappa)
heavy 1: not shown
heavy 2: not shown
light: B1 light
notes: Substitution in one H chain only; position in EU numbering; also called S239N heterodimerized antibody
B24: GpH7-A5/GpH7-B3 variant P271_01G/GpL16-k0 (He Ab) (antibody, human IgG1, kappa)
heavy 1: not shown
heavy 2: not shown
light: B1 light
notes: Substitution in one H chain only; position in EU numbering; also called P271G heterodimerized antibody
B25: GpH7-A5/GpH7-B3 variant S267_07I/GpL16-k0 (He Ab) (antibody, human IgG1, kappa)
heavy 1: not shown
heavy 2: not shown
light: B1 light
notes: Substitution in one H chain only; position in EU numbering; also called S267I heterodimerized antibody
B26: GpH7-A5/GpH7-B3 variant S239_07I/GpL16-k0 (He Ab) (antibody, human IgG1, kappa)
heavy 1: not shown
heavy 2: not shown
light: B1 light
notes: Substitution in one H chain only; position in EU numbering; also called S239I heterodimerized antibody
B27: GpH7-A5/GpH7-B3 variant S267_02A/GpL16-k0 (He Ab) (antibody, human IgG1, kappa)
heavy 1: not shown
heavy 2: not shown
light: B1 light
notes: Substitution in one H chain only; position in EU numbering; also called S267A heterodimerized antibody
B28: GpH7-A5/GpH7-B3 variant K334_19Q/GpL16-k0 (He Ab) (antibody, human IgG1, kappa)
heavy 1: not shown
heavy 2: not shown
light: B1 light
notes: Substitution in one H chain only; position in EU numbering; also called K334Q heterodimerized antibody
B29: GpH7-A5/GpH7-B3 variant S337_10E/GpL16-k0 (He Ab) (antibody, human IgG1, kappa)
heavy 1: not shown
heavy 2: not shown
light: B1 light
notes: Substitution in one H chain only; position in EU numbering; also called S337E heterodimerized antibody

These binders were tested against T1, FcγRIIb extracellular domain with C-terminal His tag (human, UniProt P31994 43-217) (assay: SPR (Biacore), antibody captured on antigen-peptide chip, FcgRIIb as analyte; binding relative to GpH7-A5/GpH7-B3/GpL16-k0 (HeCon Ab) = 100).
T1 construct: extracellular domain; Expressed in FreeStyle293 cells; used as analyte in Biacore; also called FcgRIIb; 2b; not shown: C-terminal His tag
T1 sequence (looked up): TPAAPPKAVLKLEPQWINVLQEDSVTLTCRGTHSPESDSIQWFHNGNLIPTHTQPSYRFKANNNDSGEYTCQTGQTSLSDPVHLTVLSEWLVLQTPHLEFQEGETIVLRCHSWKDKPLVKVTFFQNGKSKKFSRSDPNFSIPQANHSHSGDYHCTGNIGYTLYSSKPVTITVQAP

Row | Binder | He/Con_2b
1 | B1 | 114 % of control
2 | B2 | 103 % of control
3 | B3 | 142 % of control
4 | B4 | 113 % of control
5 | B5 | 103 % of control
6 | B6 | 110 % of control
7 | B7 | 379 % of control
8 | B8 | 140 % of control
9 | B9 | 144 % of control
10 | B10 | 141 % of control
11 | B11 | 193 % of control
12 | B12 | 206 % of control
13 | B13 | 105 % of control
14 | B14 | 219 % of control
15 | B15 | 115 % of control
16 | B16 | 192 % of control
17 | B17 | 104 % of control
18 | B18 | 104 % of control
19 | B19 | 105 % of control
20 | B20 | 109 % of control
21 | B21 | 108 % of control
22 | B22 | 109 % of control
23 | B23 | 119 % of control
24 | B24 | 193 % of control
25 | B25 | 192 % of control
26 | B26 | 107 % of control
27 | B27 | 243 % of control
28 | B28 | 109 % of control
29 | B29 | 107 % of control

Reference: patent US20180155451A1 (published 2018)
